Consider four molecules from paper PMC10787639 (Frontiers in Molecular Biosciences, 2023).

Data set [1] is classed as physicochemical. Particulars: lyophilised peptide; resuspended in DMSO at 8 mg/mL (4.8 mM) instead. From the text:
A 15mer Ct PolD3 PIP peptide spanning residues 437–451 (sequence: ^437GKGGQGSIMSWFAKK^451) and a 15mer Ct Fen1 peptide spanning residues 339–353 (^339GAQQARIEGFFKVIP^353) were commercially synthesised (GenScript, Piscataway, New Jersey, United States) and obtained in lyophilised form at final purities of 99.4% and 99.1%, respectively.

Another data set has as its target PolD3/p66 (Homo sapiens) (UniProt Q15054). Description: ITC. The conditions noted are these: cited from earlier work.
The target in the next data set is PolD4 (Homo sapiens) (UniProt Q9HCU8). Description: ITC. Particulars: cited from earlier work.
Data set [2] concerns the target Chaetomium thermophilum PCNA (proliferating cell nuclear antigen) (Chaetomium thermophilum). Description: crystal structure; Ct PCNA (14 mg/mL) mixed with Ct PolD3 PIP peptide (8 mg/mL in dH2O); crystals in 0.1 M phosphate/citrate pH 4.2, 40% PEG 300; space group P1, one PCNA trimer in the asymmetric unit; 2.45 A; the peptide occupies a single PIP binding site, the others occluded by crystal packing.

For data set [3] the target is unchanged. Description: ITC; 420 uM Ct PolD3 peptide injected into 300 uL of 32.7 uM Ct PCNA; 25°C; 50 mM Tris-HCl, 150 mM NaCl, pH 8.0; duplicate; single site model (1 peptide: 1 PCNA protomer). On the technique in general: ITC needs no label: the signal is the heat of the interaction.

PCNA, sequence (P12004 whole entry): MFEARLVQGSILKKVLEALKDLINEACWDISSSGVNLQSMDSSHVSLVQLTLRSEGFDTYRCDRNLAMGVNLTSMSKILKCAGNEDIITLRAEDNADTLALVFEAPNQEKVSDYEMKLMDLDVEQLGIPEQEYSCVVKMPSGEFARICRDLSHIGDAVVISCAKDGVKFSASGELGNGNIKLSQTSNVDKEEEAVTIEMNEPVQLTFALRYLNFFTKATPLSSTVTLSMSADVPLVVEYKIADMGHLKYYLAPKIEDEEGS
UniProt Q15054, sequence (Q15054 2-466): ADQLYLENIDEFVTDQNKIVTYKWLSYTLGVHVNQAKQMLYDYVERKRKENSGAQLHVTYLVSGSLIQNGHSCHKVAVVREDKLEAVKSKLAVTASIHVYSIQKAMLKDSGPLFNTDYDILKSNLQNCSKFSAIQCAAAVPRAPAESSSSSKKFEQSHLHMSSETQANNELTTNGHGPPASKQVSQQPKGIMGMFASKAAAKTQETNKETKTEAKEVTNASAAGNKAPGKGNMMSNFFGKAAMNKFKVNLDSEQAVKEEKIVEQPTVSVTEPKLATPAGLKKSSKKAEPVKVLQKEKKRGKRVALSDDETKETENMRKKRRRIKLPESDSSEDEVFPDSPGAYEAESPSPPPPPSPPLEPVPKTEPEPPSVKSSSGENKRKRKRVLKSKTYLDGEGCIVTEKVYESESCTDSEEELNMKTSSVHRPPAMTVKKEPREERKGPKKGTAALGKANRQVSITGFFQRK
UniProt Q9HCU8, sequence (Q9HCU8 whole entry): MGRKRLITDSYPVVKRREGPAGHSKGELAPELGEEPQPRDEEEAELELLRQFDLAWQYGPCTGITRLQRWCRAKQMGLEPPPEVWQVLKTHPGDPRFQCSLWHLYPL

For the molecule “GAQQARIEGFFKVIP [Ct Fen1 PIP peptide, 15mer Ct Fen1 peptide spanning residues 339–353, commercially synthesised (GenScript), purity 99.1%]”, the “solubility in aqueous solution” value in data set [1] is “insoluble in aqueous solution”.

As usually defined, the Kd is a measure of binding affinity in units of concentration. For the molecule PCNA (from UniProt P12004), the Kd with PolD3/p66 (Homo sapiens) is 16 µM; with PolD4 (Homo sapiens), 38 µM.

One may read the stoichiometry N as the number of molecules, sites or subunits per partner or assembly. Take “Chaetomium thermophilum PCNA (proliferating cell nuclear antigen) (natural protein)”: the stoichiometry N in data set [2] was found to be 3.

On to GKGGQGSIMSWFAKK [Ct PolD3 PIP peptide (15mer, residues 437-451)], for which, in data set [3], the Kd was found to be 43.2 µM and the stoichiometry N (PIP peptide per PCNA protomer) was 1.
